Consider one molecule from patent US20220193237A1 (Bristol-Myers Squibb, published 2022).

The target in assay [1] is T1, monomeric human CTLA-4 (human, UniProt P16410 36-161, limits assumed).
T1 construct: Soluble monomeric analyte in SPR; also called huCTLA-4
T1 sequence: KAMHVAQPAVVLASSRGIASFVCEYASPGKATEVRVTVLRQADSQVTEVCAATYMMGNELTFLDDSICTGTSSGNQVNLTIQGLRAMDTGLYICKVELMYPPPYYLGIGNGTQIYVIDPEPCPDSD
The experiment in a line: SPR, captured Fab, pH 6.0. How it is done:
(§1) Unless otherwise indicated, experiments were performed with a BIACORE® SPR surface plasmon resonance spectrometer (Biacore AB, Uppsala, Sweden). Antibodies were tested as monovalent Fab fragments to simplify analysis.
(§2) Monomeric human CTLA-4 was flowed as analyte with up to 2 μM top concentration. Between cycles, the capture surface was regenerated with 75 mM phosphoric acid. Experiments were run on a BIACORE® T200 instrument at 37° C. Running buffers were HEPES buffered saline for pH 7.4 experiments and Bis-Tris buffered saline for lower pH experiments. […] Double referenced sensorgrams were fitted to a 1:1 Langmuir binding model with mass transport to determine equilibrium dissociation constants (KD), as well as association (kₐ) and dissociation (kd) rate constants where appropriate.
On the technique in general: Surface plasmon resonance follows binding to a sensor surface in real time, without labels.

Assay [2] has as its target T1, monomeric human CTLA-4. The experiment in a line: SPR, captured Fab, pH 7.4. Here is the method: as §1, §2
Assay [3] has as its target T1, monomeric human CTLA-4. Briefly: SPR, captured Fab, pH 6.0. The source holds these as a separate data set.
Assay [4] deals with T1, monomeric human CTLA-4. Briefly: SPR, captured Fab, pH 7.4. The source holds these as a separate data set.
The target in assay [5] is T1, monomeric human CTLA-4. The experiment in a line: SPR, captured Fab, pH 6.0 and pH 7.4.
Assay [6] has as its target T1, monomeric human CTLA-4. The experiment in a line: SPR, captured Fab, pH 6.0 vs 7.4. Here is the method:
as §1, §2

Assay [7] has as its target T1, monomeric human CTLA-4. Briefly: SPR, captured Fab, pH 6.0 vs 7.4. This is another data set of the same source.

Where two headings read alike, the source gives them in different places.

B1: ipi.3 Fab (Fab, V domains shown)
VH: QVQLVESGGGVVQPGRSLRLSCAASGFTFSSYTMHWVRQAPGKGLEWVTFISYDGNNKYYADSVKGRFTISRDNSKNTLYLQMNSLRAEDTAIYYCARHGWLGPFDYWGQGTLVTVSS
VL: not shown
notes: Tested as monovalent Fab; also called HCDR3 T95H (Kabat)
Turning to B1, the Kd with monomeric human CTLA-4 [1] is 180 nM; in the assay with monomeric human CTLA-4 [2], 200 nM; with monomeric human CTLA-4 [3], 76 nM; with monomeric human CTLA-4 [4], 97 nM. Moreover, the koff with monomeric human CTLA-4 [1] came to 0.15 s⁻¹; with monomeric human CTLA-4 [2], 0.094 s⁻¹. Moreover, the results for the kon with monomeric human CTLA-4 [1], with monomeric human CTLA-4 [2] and in the assay with monomeric human CTLA-4 [3] were 840000 M⁻¹ s⁻¹, 480000 M⁻¹ s⁻¹ and 1.1e+06 M⁻¹ s⁻¹, respectively. For the same molecule, in the assay with monomeric human CTLA-4 [3], the “t1/2” value was found to be 9 s. Also, the “fold decrease of affinity (increased KD) vs ipilimumab” value in the assay with monomeric human CTLA-4 [5] was roughly 4 fold. Besides, the entries for the “KD 7.4/6 (APBP)” value with monomeric human CTLA-4 [6] and in the assay with monomeric human CTLA-4 [7] were 0.9 and 1.3, respectively.

The term Kd denotes a measure of binding affinity in units of concentration. High values mean lower affinity, low ones higher affinity. What is called koff is a measure of how fast the partners let go of each other. A low value points to a long-lived complex. Broadly, the kon is the rate constant with which the complex forms.
